Measurements published in the supplement of paper PMC10126150.
± gives the standard deviation of the averaged measurements.

System: ATP
Experiment: switch fluorescence ratio, 500 uM ATP over buffer (Cy3 cluster intensity, sum of 5 cycles each) (fold (ratio)); higher = stronger signal-on switching upon ATP binding; sequences stand for … in TCGTCGGCAGCGTCAGATGTGTATAAGAGACAGTTTTTTTTTTTTTTTTTTTTTTTTT…TC
Settings: aptamer strand: ATP DNA aptamer (quencher-CACCTGGGGGAGTATTGCGGAGGAAGG + anchor), 100 nM annealed; ATP concentration: 500 uM
Procedure, shortened: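 Five buffer/ATP imaging cycles were run on Cy3-labelled switching-strand clusters on a modified Illumina MiSeq flow-cell, with NaOH stripping and re-annealing between cycles. In each cycle, clusters annealed to 100 nM quencher-labelled ATP aptamer were imaged in selection buffer, then after 15 min with 500 uM ATP at 22 °C. Per cluster, the fluorescence ratio is summed target-cycle over summed buffer-cycle Cy3 intensity, averaged per switch-domain sequence. Only clusters within 100-1000 RFU were kept.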
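Note: ATP exposure 15 min at 22 °C before imaging.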

Row | Sequence | switch fluorescence ratio
1 | GGGAATTGTG | 0.993 ± 0.06
2 | GGGACCAATT | 1 ± 0.022
3 | GGGACGACAG | 1.04 ± 0.031
4 | GGGACGATTG | 0.985 ± 0.059
5 | GGGACGGATT | 1 ± 0.021
6 | GGGACTAGTG | 1 ± 0.029
7 | GGGACTGGTA | 1 ± 0.049
8 | GGGACTTACC | 1.08 ± 0.02
9 | GGGACTTGGA | 0.9765 ± 0.009
10 | GGGACTTTTT | 0.999 ± 0.043
11 | GGGAGAAAAG | 0.984 ± 0.014
12 | GGGAGAATGG | 0.98 ± 0.028
13 | GGGAGACCAA | 0.9822 ± 0.0031
14 | GGGAGAGAAC | 0.992 ± 0.012
15 | GGGAGAGAGT | 0.999 ± 0.029
16 | GGGAGAGCGG | 0.9662 ± 0.0095
17 | GGGAGAGGCT | 0.9764 ± 0.0016
18 | GGGAGATAGC | 1.06 ± 0.015
19 | GGGAGATTAG | 0.979 ± 0.015
20 | GGGAGCAGGG | 0.909 ± 0.058
21 | GGGAGCCGGT | 1.02 ± 0.015
22 | GGGAGCCTAC | 1.038 ± 0.0081
23 | GGGAGCCTTC | 1.01 ± 0.031
24 | GGGAGCGGGT | 1.04 ± 0.025
25 | GGGAGCTACA | 1.02 ± 0.017

Row | Sequence | switch fluorescence ratio
26 | GGGAGCTGAA | 1.04 ± 0.04
27 | GGGAGCTGAG | 1.015 ± 0.0055
28 | GGGAGGAGGA | 0.974 ± 0.026
29 | GGGAGGATGC | 0.993 ± 0.059
30 | GGGAGGCGGG | 0.99 ± 0.019
31 | GGGAGGGAGT | 1.01 ± 0.024
32 | GGGAGGGATG | 1.02 ± 0.024
33 | GGGAGGGCGG | 0.975 ± 0.051
34 | GGGAGGGCGT | 0.981 ± 0.034
35 | GGGAGGGCTT | 1.05 ± 0.092
36 | GGGAGGTCAG | 0.992 ± 0.035
37 | GGGAGGTTGC | 1.09 ± 0.23
38 | GGGAGGTTTT | 1.04 ± 0.084
39 | GGGAGTAGGC | 0.731 ± 0.022
40 | GGGAGTAGGT | 1.008 ± 0.0094
41 | GGGAGTCGGG | 1.01 ± 0.0092
42 | GGGAGTGATG | 0.986 ± 0.019
43 | GGGAGTTAAT | 0.97 ± 0.019
44 | GGGATAACGG | 0.962 ± 0.018
45 | GGGATAAGGA | 0.99 ± 0.044
46 | GGGATAAGGG | 1.01 ± 0.027
47 | GGGATAATTA | 1.01 ± 0.029
48 | GGGATAGAGG | 0.999 ± 0.051
49 | GGGATAGCCG | 1 ± 0.059
50 | GGGATAGGCA | 1.01 ± 0.039

Row | Sequence | switch fluorescence ratio
51 | GGGATAGGGT | 1 ± 0.027
52 | GGGATATAGT | 0.9696 ± 0.0044
53 | GGGATATGAA | 0.992 ± 0.018
54 | GGGATATGGG | 0.995 ± 0.045
55 | GGGATCAGTG | 0.995 ± 0.03
56 | GGGATCATGG | 1.08 ± 0.083
57 | GGGATCCGAC | 1.05 ± 0.041
58 | GGGATCGGGG | 0.988 ± 0.019
59 | GGGATCGGTT | 0.982 ± 0.034
60 | GGGATCTATA | 0.9721 ± 0.0081
61 | GGGATCTATG | 1.02 ± 0.027
62 | GGGATGAACT | 1.01 ± 0.013
63 | GGGATGAAGA | 1 ± 0.013
64 | GGGATGACGA | 0.98 ± 0.042
65 | GGGATGAGGT | 1 ± 0.033
66 | GGGATGGGAG | 1.02 ± 0.038
67 | GGGATGGGGC | 1.04 ± 0.042
68 | GGGATGGGGG | 1 ± 0.043
69 | GGGATGGTGG | 0.991 ± 0.024
70 | GGGATGTGGT | 1.01 ± 0.023
71 | GGGATGTTGG | 1.006 ± 0.0071
72 | GGGATTAACT | 1 ± 0.031
73 | GGGATTAAGA | 0.98 ± 0.026
74 | GGGATTAATG | 1.01 ± 0.015
75 | GGGATTACGT | 1.03 ± 0.029

Row | Sequence | switch fluorescence ratio
76 | GGGATTATTT | 0.972 ± 0.02
77 | GGGATTCAG | 1.0226 ± 0.0002
78 | GGGATTCTTG | 1.01 ± 0.04
79 | GGGATTTCCG | 0.992 ± 0.018
80 | GGGATTTGCG | 1 ± 0.046
81 | GGGATTTGCT | 0.963 ± 0.022
82 | GGGATTTTCC | 0.979 ± 0.044
83 | GGGATTTTCG | 0.98 ± 0.023
84 | GGGATTTTGA | 0.999 ± 0.017
85 | GGGCAAAGGT | 1.09 ± 0.16
86 | GGGCAAGTGT | 1.06 ± 0.034
87 | GGGCACATGG | 1.02 ± 0.029
88 | GGGCAGATGG | 0.988 ± 0.034
89 | GGGCAGCTGG | 0.981 ± 0.042
90 | GGGCAGGCTT | 0.98 ± 0.017
91 | GGGCAGGTAG | 1.03 ± 0.031
92 | GGGCAGTGGG | 1.05 ± 0.074
93 | GGGCATCGAC | 1.05 ± 0.017
94 | GGGCATCTTT | 1 ± 0.06
95 | GGGCATGGAG | 0.992 ± 0.02
96 | GGGCATGTTG | 1.02 ± 0.03
97 | GGGCCACCAG | 1.01 ± 0.032
98 | GGGCCCGGCA | 0.9814 ± 0.0049
99 | GGGCCGTTGC | 0.948 ± 0.029
100 | GGGCCTGGAA | 1.01 ± 0.069
